Experimental data taken from patent US20220387457A1.

Substrate: CC1(C)Oc2ccc(C#N)cc2[C@@H](N2CCCC2=O)[C@@H]1OP(=O)(O)O
Test: purified protein, by the assay type
Assay type: biochemical, human
Conditions: other: ALP 0.02 U/100 μL, pH 10, 37.0 °C
Method: To activate CKLP1, the phosphate is hydrolyzed from phosphatases to produce leveromakalim, the active moiety that can open (activate) ATP-sensitive potassium channels.
In the first experiment, a fixed concentration of CKLP1 solution was incubated with varying concentrations of placenta-derived human alkaline phosphatase. To accomplish this, placenta-derived human alkaline phosphatase (0.0002 U) in a 100-μL volume was added to each of thirteen 1.5-mL tubes. To each tube, CKLP1 was then added at a fixed concentration [10 mM (0.4%)]. Tubes were inverted twice and incubated in a water bath at 37° C. At each of 13 different time points (0, 1, 2.5, 5, 15, and 30 minutes and at 1, 2, 4, 8, 24, 48, and 72 hours), a single tube was removed, and the reaction was stopped by the addition of 2 volumes (200 μL) of acetonitrile. Samples were stored at −80° C. The experiment was repeated with 10 mM CKLP1 (0.4%) in the presence of placenta-derived human alkaline phosphatase at concentrations of 0.002 U, 0.02 U, and 0.2 U. All assays were performed at pH 10.
In a second experiment, a fixed concentration of placenta-derived human alkaline phosphatase was incubated with varying concentrations of CKLP1. To accomplish this, a fixed concentration of 0.02 U of placenta-derived human alkaline phosphatase in a 100-μL volume was added to each of thirteen 1.5-mL tubes. […]

B1: placenta-derived human alkaline phosphatase (Homo sapiens) (protein)
chain: IIPVEEENPDFWNREAAEALGAAKKLQPAQTAAKNLIIFLGDGMGVSTVTAARILKGQKKDKLGPEIPLAMDRFPYVALSKTYNVDKHVPDSGATATAYLCGVKGNFQTIGLSAAARFNQCNTTRGNEVISVMNRAKKAGKSVGVVTTTRVQHASPAGTYAHTVNRNWYSDADVPASARQEGCQDIATQLISNMDIDVILGGGRKYMFRMGTPDPEYPDDYSQGGTRLDGKNLVQEWLAKRQGARYVWNRTELMQASLDPSVTHLMGLFEPGDMKYEIHRDSTLDPSLMEMTEAALRLLSRNPRGFFLFVEGGRIDHGHHESRAYRALTETIMFDDAIERAGQLTSEEDTLSLVTADHSHVFSFGGYPLRGSSIFGLAPGKARDRKAYTVLLYGNGPGYVLKDGARPDVTESESGSPEYRQQSAVPLDEETHAGEDVAVFARGPQAHLVHGVQEQTFIAHVMAFAACLEPYTACDLAPPAGTTD
notes: varying concentrations of placenta-derived human alkaline phosphatase; from tissue; host or cells: human placenta
Km: 399 µM
